As usually defined, the stoichiometry N is the number of molecules, sites or subunits per partner or assembly.

The values that follow come from publication PMC7572726.

In test [1] the target is TIR-only construct of SfSTING with the cyclic dinucleotide binding domain removed (ΔCDN) (Sphingobacterium faecium). Nature of the test: SEC-MALS. (In gel filtration, larger molecules generally elute earlier.)
The target in test [2] is SfSTING with the TIR domain removed (ΔTIR) (Sphingobacterium faecium). Kind of test: SEC-MALS.
For test [3], the target named is Capnocytophaga granulosa STING (Capnocytophaga granulosa). Kind of test: crystal structure.

On to “TIR-only construct of SfSTING with the cyclic dinucleotide binding domain removed (ΔCDN) (domain or fragment)”, for which, in test [1], the stoichiometry N came to 2.
The substance “SfSTING with the TIR domain removed (ΔTIR) (domain or fragment)” showed a stoichiometry N in test [2] of 2.
“Capnocytophaga granulosa STING (from UniProt A0A381HAP5 151-314) (domain or fragment)” came in with a stoichiometry N in test [3] of 2.
